Assay: label from the status in PepcDB records
With “MNLRPYQHTIVDFILTHPRCNLFVPMGLGKTVATLTALDVLLVVEDIAPILVIAPLRVAATTWPDEVAKFPHLRHLRVSVVVGSAAARRHALEQEADIYCINYDTLKWLVEFYKDRWPFRMVVADECSKLKGFRLRQGTRRARALATHVHTKVERYVGLTGTPAPNGLQDLWALMWMVDRGARLGTHFKAFIDRWFRAMQIGSDPHAVRFVPTPHASQEIQDKIRDICLSLDPHAYFDLCQPIVNTIRVALPAHAQRLYKAMEQDMFIALECGAEVEAFNAASKTIKCLQLANGALYTDDTRQAWEVVHDAKLEALHDIIEEAAGMPVLVAYHFKSDVARLQRAFPKGRALDKHPDTIRDWNAGNIPVLFAHPASAGHGLNLQDGGNILAFFGHWWDLEQYQQIIERIGPTRQAQAGHTRPVFIHHIVAAGTVDELVMARRESKREVQDLLLEAVKRRETGKPLTSQGAIAL” the protein production was “failed”. In the case of “MNLSQQNQHSNPITEAAKATFPYSVPMIAGFLFLGIAYGIYMKALGFGFLYPTLMALLIYAGSVEFIAAGALIAPFSPISVLLITLMISARQIFYGISMLEKYGIHIGKKRWYLITTLVDESFSLNYMAKIPPHLDKGWYMFFVSLYLHIYWVLGAAMGNLFGTVLPFNLKGVEFSMTALFLVIFAENWLKGKSHESSLLGLGIALVFLLIIGKEYFLIPTLIGIWLILTMRITKLETKLESLK”, the protein production is reported as “failed”. For “MNLSSASSTEEKAVTTVLWGCELSQERRTWTFRPQLEGKQSCRLLLHTICLGEKAKEEMHRVEILPPANQEDKKMQPVTIASLQASVLPMVSMVGVQLSPPVTFQLRAGSGPVFLSGQERYEASDLTWEEEEEEEGEEEEEEEEDDEDEDADISLEEQSPVKQVKRLVPQKQASVAKKKKLEKEEEEIRASVRDKSPVKKAKATARAKKPGFKK”, the protein production was “failed”. With “MNLVGIVGTNSERSTNRKLLRFMAEHFAPQAAIEVLEIKDLPAFDEPENKTAPAAVTAFSKKIAAADGVIIATPEYNHTIPAPLGSALEWIAYTSRVLVNKPVMIVGCSLGALGTSRAQAHLRQILDAPELKARVMPGTEFFLGHSEHVLDDDFNLNNPEKVAELEEHFTEFQDFVIVTNQIVKQADTDRKLEHHHHHH” the protein production was “not failed”. For “MNLVKFTLDKANSQAYSSEQTTTEVSNMTIENGVRVLAGSMVLLSVILTWFVHPNFLWLTVFVGVNLIQSAFTGFCPAAFFLKKLGLR”, the protein production was “failed”. In the case of “MNLYADYEYYTSTYKGNLAKEEFEKSIMKASAYVRRITFGRADDNMEMEEVKLAACSVCDLIANDEKVRSKHSGRAVTSENTDGYSVSYESGGNGETADDLLKRNIFDTLLLYLEPTRLLYMGVELLEHHHHHH”, the protein production is reported as “not failed”. For “MNLYSLLLSLITGCFLLAQGGTSFSSPVETEKSAVTAQSILEKADEIRFPQDSFQVNVAIRTAAPDHAEDLYRYQVLSKGNENSIVMITEPASERGQAILMKGRDLWVFMPSVSQPIRLSLSQRLTGQVANGDIARANFTGDYHPQLLRNESIDDEDYYVLELTGIDRSVTYQKVLLWVNQSNFRPYKAEFYSVSGRLLKTSRYENFDNILGEMRPTRIIMEDALKSGEVSVLDYSDMKLRDLPDKIFTKDYLKRLE”, the protein production was “failed”. With “MNMKATALTATTVAIASLLPSMGETNVQTANAEQLSNVKTGYVKVDQVALHTKDNANSSSIDTIRFNTKVNILETTNGWYKVSVNNKVGYVQKDSILLKNKLQSNNQYIVNANALNVRSEPNLESSILDVLPNGKFVTIQEEQGEWYKISHNGKAGYVQKAFVSNGSQPLVKGITVQNNTKYTVATPKLNVRSNASTSSALLGSLQNGTQLQVVETVGTWYKIRFGTGYGYVAKHYVVQNQTQSQTQTAQPTSIPAVFKFPTQGRISSTFDMRWEQMHYGIDIAAPGNVSIQAAAAGKVVKSYYSASYGNVVFIAHQINGKLYTTVYAHMKDRTVQAGDQVQAGQLVGHMGNTGHSYGQHLHFELHNGEWNFEKTNAVNPLPYLVRLEHHHHHH” the protein production was “failed”. With “MNMQKLRIELGEETNDELYDLLLLADPSKDIVDEYLERGECYTAWAGDELAGVYVLLKTRPQTVEIVNIAVKESLQKKGFGKQLVLDAIEKAKKLGADTIEIGTGNSSIHQLSLYQKCGFRIQAIDHDFFLRHYDEDIFENGIQCRDMVRLYLDLLEHHHHHH” the protein production was “not failed”. With “MNMVEPLAVAILIAYLVALLLIGLLSSKKSSVGMTDFFIAGRNLNKWTVALSAVSSGRSAWLVLGVTGTAYATGLDAVWAVAGYITVEVFLFFYVARRFRAYSEQTGSITIPDILETRFNDKTHILRGGSAFIIMFFMIAYVASQLVAGGGAFATSMGVSSSTGMWVTAVILLAYTMLGGFHAVSKTDVVQAGFMFVSLVILPVVAIIGLGGFDPLLQVMHTEGGGFTSPFAFGFGAVIGLLGIGFGSPGNPHILVRYMSLKNVKEMRQAALISSVWNVLMGWGAVMIGLAGRAYFPDVSLLPNGDQEQVFLMLGSEILHPLFFGFLLVAVLAAIMSSADSQLLVGSSAFVRDIYQKMFRRNRKLSQKKLVRLSRLTTVVFMGLSLILAFTAQEFVFWMVLFAFGGLGACFGPALLLSFYWKGVTRQGVLWGMIAGLLTVILVKQQPQWTYAFLPDVKELLNTYFFGITYEAVPGFIVATTITVVISLFTKRPKHAKQIIERLNESA” the protein production was “failed”. For “MNNAMQLLQPYPFKKLRALLGSVTPNPEKRPVALSIGEPKHRSPDFVAKALADNLDQMAVYPTTLGIPALREAIAGWCNRRFGVPQGWIDPARNVLPVNGTREALFAFTQTVVNRSDDGLVVSPNPFYQIYEGAAFLAGAQPHYLPCLSDNGFNPDFDAVDADIWKRCQILFLCSPGNPTGALIPVETLKKLIALADEHDFVIAADECYSELYFDEQTPPPGLLSACVELGRQDFKRCVVFHSLSKRSNLPGLRSGFVAGDAEILKAFLLYRTYHGCAMPVQTQLASIAAWNDEEHVRANRDLYREKFDAVLDILAPVLDVQRPDGGFYLWPNVGTDDAAFCRDLFVDQHVTAVPGSYLSREVDGVNPGAGRVRLALVAPLAECIEAAERIRAFVLK”, the protein production was “not failed”. For “MNNENMVRVFYVLLMGLGFPIMRFMSIHFETLNNNSVRFLSGGSLFVIICLIKFRSELKKIIGEPKIILYLFIYLFILGIFMTGNMFFFINGLKYTSALAGSIFGILAMPLAIIIAGIFFKDERDRIRQKEFYIGELLAIIGSLIFVINSSNNDGNTDFFLGAIFLFTAIFIQSVQNLIVKKVAKKINAVVISASTATISGVLFLCLAFNTKQIYLLQDVGIGMLIGLVCAGFYGMLTGMLMAFYIVQKQGITVFNILQLLIPLSTAIIGYLTLDERINIYQGISGIIVIIGCVLALKRKNKEC”, the protein production was “failed”. In the case of “MNNFTYEKLHNNLQYLKLNTIEELLDNCLEIAARDSKTTMEVLDYLFEQEKKHREAAAIERRMKSAGFPVKKMLEEFDFEFQSSINKKVIEDLATLRFVHNAENIVLLGPPGVGKSHLAIALGIEAVKAGISVHFTNTGNLIERLKIANREGILEKKIRDLMKFKVLIIDEIGYLPFDDEGAHCLFQLISRRYEKSSTILTSNKSYGEWGEIFKDHVIAAALLDRILHHCTTINIKGESYRLKERKKQGIKTGLIRHNSTEILENLEHHHHHH”, the protein production is reported as “not failed”. With “MNNIRLLNQNDLDSYIELMKFGHHNYEWDRYYLENVSIDRLKTILSNHTDYWNIFGAFEDDELVATCTLKQMNYVGKCHKAILENNFVKNNDEIVNRELINHIIQYAKEQNIETLMIAIASNNISAKVFFSSIGFENLAFEKNASKIGNEYFDENWLIYSTTE” the protein production was “failed”. With “MNNLINNPLFGILLTLFAFEIGMTIYKKTKIPLLNPLLIAIALVIAVLVSCHISFETYNIGGSFINAFLGPATVILAVPLYKQLQLLKNHFVPIMTGIIVGSFASMCCVIIMGYFLGVNHELIASLVPKSVTTPIGVEVASGLGGIPSITVIAVIITGITGAIIAPMVCKLLKIDHEVAMGVSMGTAAHAVGTTKALEIGETHGAMSSLSIGVAGLITVFLAPPIYMLSALILKFV” the protein production was “failed”. With “MNNLPLLNDLRVFMLVARRAGFAAAAEELGVSPAFVSKRVSLLEQTLNVMLLHRTTRRVTITEEGERIYEWAQRILQDVDEMMDELSDVRQVPQGTLRIISSFGFGRRVVAPALSALALQYPQLELRFDVQDRLVDLVNEGVDLDIRVGDDIAPNLIARQLAANHRVLCASPQFLARHAPPKQLSDLAALPCLVIKERDHPFGVWQLHSKEGQHAIKVTGPLSSNHGEIVHQWCLDGQGIALRSWWDVRENIASGHLVQVLPDYWQPANVWAVYVSRLATSAKIRTTVEFLRHYFQLHYPQHEPTASAVGRGD” the protein production was “failed”. For “MNNPKPCEWKSNELSRGYIADYKAFNFVDGEGVRCSLYVSGCPFHCEGCYNKAAQSFKYGKPYTKELEDDILKDIGHESVQGLTLLGGEPFLNTATCLSIVKRIRATYGETKDIWSWTGYTWDEMMQETADKLELLSLIDVLVDGRFEQKLFDPNLAFRGSSNQRIIDVQKSLAAGEVVLYELLEHHHHHH”, the protein production was “failed”. For “MNNPQDYSHKECLKASLLETFGFDGFRPGQEQTITQLLKGQSSLSIFPTGSGKSLCYQLTALHLPHLTLVVSPLLALMKDQLSFLASKGIKAASIDSTLKGNEAQTVMAGVRDGDIKVLMVSVERFKNERFRQFIESVPVSMLVVDEAHCISEWGHNFRPDYLKLPSYCQALNISLVLLLTATATRKVKQDMAAKFAIRDEHIVQTGFYRSNLDLSVLPVTQAHKNKQLEQIISAQQGAGIVYVTLQHSAETVAQYLKQQGINACAYHAGFDSDTRSQIQQDFMAGKIQVIVATIAFGMGIDKSNIRFVIHYDLPKSIENYSQEIGRAGRDGLPSQCFTLANLDGLNTVENFVYGDTPEFTGIEMLLNTIKSEVITSTHVGISDNRSEGKWELQILQLSNAVNIKQLPLKTLLVQLELAGVIEPLYAYFADFKIKLLKPKAEIINSFNDQRKDFLQRIFNATDFKKVWGSLNFDTLLQDQSIERNRVIAALEYLQEQQLIVLETKGMTEVFNIKLNELADPSLCQTLSNYFKDNEEKEIKRIATLVRFFQLDTCLTVNLARYFDDTSFDDKRFDGNSSDNNSLDSARNSGTVPQCGHCSVCRGQVAVLEHSQAQIPWPSDEALKQGMTELAERLSGKINQPLSIESFCRFFAGMSVPLFGRNKVRQLSGFGVCEQQRYQAILEKLASLSK”, the protein production was “failed”. In the case of “MNNSAFTFQTLHPDTIMDALFEHGIRVDSGLTPLNSYENRVYQFQDEDRRRFVVKFYRPERWTADQILEEHQFALQLVNDEVPVAAPVAFNGQTLLNHQGFYFAVFPSVGGRQFEADNIDQMEAVGRYLGRMHQTGRKQLFIHRPTIGLNEYLIEPRKLFEDATLIPSGLKAAFLKATDELIAAVTAHWREDFTVLRLHGDCHAGNILWRDGPMFVDLDDARNGPAVQDLWMLLNGDKAEQRMQLETIIEAYEEFSEFDTAEIGLIEPLRAMRLVYYLAWLMRRWADPAFPKNFPWLTGEDYWLRQTATFIEQAKVLQEPPLQLTPMY”, the protein production is reported as “not failed”. In the case of “MNNSTQTAPDSGNTLVISNVHLLLSDGWKNDTCLQVTEGVITAIGQDVVQGNSQVIDAGGGYLLPGIIDLHGDAFERHITPRAGTLFPLDLALAANDASLVANGITTFYYSITDGFEPGPRSRETVRKLLLALEELMPRFSCQAKVHIRHEKVNTEGHDELVDWLRNGRVHMLSLNDHLPELDNERAVKRYLAGLQRRVTMDDDATQEFLSSLQGRRELGEEQTRALASLALASGVSLSSHDDHGLEDVARNVQLGTAIAEFPMDAQTALESRKSGISVLMGAPNLVRGGSHVGAISVRDAIAEGLVDILCSDYHYPSLFTAPFVTARHDLLPLADAWKMVSENPARAAGMGDRKGQIAPGYDADLLLLSELDGSPLSLQATFVGGTPVYQREGQWQKQPLAAEAGGVVV”, the protein production is reported as “failed”.
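Note: failed if final PepcDB status was selected cloned or expressed and not failed if soluble or beyond.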
